Measurements as given in patent US20170360911A1.

Legend:
[1] = target: HLA-A*24:02 (human)
[2] = target: HLA-A*02:01 (human); assay: T2-A24 MHC class I stabilization, flow cytometry, anti-HLA-A02 BB7.2-FITC, peptide 100 ug/mL; conditions: remark: other sources report otherwise

Binder | MFI (solvent ratio) (ratio to solvent) [1] | MFI (solvent ratio) (ratio to solvent) [2]
RGYVYQGL (modifications not checked) [VSV52-59 peptide] | 1 | –
EADPTGHSY [MAGE-1161-169 peptide] | – | 1
